The results in this text go back to the DeepSol protein solubility set.

The nature of this data set: soluble on expression in E. coli; label from the status in PepcDB or PDB records.
As to “MGSDKIHHHHHHDGDDMSSCSSHSSFGSEYSEENKVNCTIDNFPVQAIALERCDGTLDSLFTKENLAMKRPQLRSAMFQIVMSLRVLQKAFRFTHNDLHTNNVVWCATDRKYLFYKHNSKYYRVPTFGRIFKIIDFGRAIYRFRGETMCSDSYHPSGDAGSQYNCEPYFNPNKPLLEPHFGFDLARLGCSLYELVDAEDVDDNGIINEEKLGDVERMIVSWCRDDKGRNILFKRDGDERYPGFKLYKMIARTSHDHTPEKMLAGYVFDTYLMAAKKCKKQERLMDVDAIPDYTEVVVGGDGKEVNATS”, the “soluble on expression in E. coli” value was “not soluble”. The entry for “MKITTEALRWWEDGETVGGRDLVGGGTWLGCTRHGRLAFLTNFKEASSFPAAKSRGDLPLRYLQSEKSPAEFAEEIQDEISLYNGFNLVVAHVLSKSMIYITNRPPHGDKLVTQVSPGIHVLSNANLDSPWPKVNSPNCVFLSLQCLRLREGFQQLLAENGSGEFPVKTMVEEVMTNTVKDEETELPHVFTPETEYHLSSIFVDMQRPTGRYGTRSISAIIVKSHGDGGGDGEICFYERHLEEGDSWKEHTQQFVIIQNQSI” is “soluble”; for “MGSSHHHHHHSSGLVPRGSHMNNIDFDSIAKMLLIKYKDFILSKFKKAAPVENIRFQNLVHTNQFAQGVLGQSQHLCTVYDNPSWHSIVLETLDLDLIYKNVDKEFAKDGHAEGENIYTDYLVKELLRYFKQDFFKWCNKPDCNHCGQNTSENMTPLGSQGPNGEESKFNCGTVEIYKCNRCGNITRFPRYNDPIKLLETRKGRCGEWCNLFTLILKSFGLDVRYVWNREDHVWCEYFSNFLNRWVHVDSCEQSFDQPYIYSINWNKKMSYCIAFGKDGVVDVSKRYILQNELPRDQIKEEDLKFLCQFITKRLRYSLNDDEIYQLACRDEQEQIELIRGKTQETKSESVSAASK” it is “soluble”. The same measure for “AESLPDLKIEKLDEGVYVHTSFEEVNGWGVVPKHGLVVLVNAEAYLIDTPFTAKDTEKLVTWFVERGYKIKGSISSHFHSASTGGIEWLNSRSIPTYASELTNELLKKDGKVQATNSFSGVNYWLVKNKIEVFYPGPGHTPDNVVVWLPERKILFGGCFIKPYGLGNLGDANIEAWPKSAKLLKSKYGKAKLVVPSHSEVGDASLLKLTLEQAVKGLNESKKPSKPSN”: “soluble”; for “MGSSHHHHHHSSGLVPRGSHGLVPRGSHMSDDMSMGLPSSAGEHGVLRSMQEVAMSSQEASKMLRTYNIAWWGNNYYDVNELGHISVCPDPDVPEARVDLAQLVKTREAQGQRLPALFCFPQILQHRLRSINAAFKRARESYGYNGDYFLVYPIKVNQHRRVIESLIHSGEPLGLEAGSKAELMAVLAHAGMTRSVIVCNGYKDREYIRLALIGEKMGHKVYLVIEKMSEIAIVLDEAERLNVVPRLGVRARLASQGSGKWQSSGGEKSKFGLAATQVLQLVETLREAGRLDSLQLLHFHLGSQMANIRDIATGVRESARFYVELHKLGVNIQCFDVGGGLGVDYEGTRSQSDCSVNYGLNEYANNIIWAIGDACEENGLPHPTVITESGRAVTAHHTVLVSNIIGVERNEYTVPTAPAEDAPRALQSMWETWQEMHEPGTRRSLREWLHDSQMDLHDIHIGYSSGIFSLQERAWAEQLYLSMCHEVQKQLDPQNRAHRPIIDELQERMADKMYVNFSLFQSMPDAWGIDQLFPVLPLEGLDQVPERRAVLLDITCDSDGAIDHYIDGDGIATTMPMPEYDPENPPMLGFFMVGAYQEILGNMHNLFGDTEAVDVFVFPDGSVEVELSDEGDTVADMLQYVQLDPKTLLTQFRDQVKKTDLDAELQQQFLEEFEAGLYGYTYLEDE”: “soluble”. The same measure for “MAAISFPLLQLPNFALNKTLKLMCVVPHLYLSIISKKAKRCITAVNEKPLYVHINKASSISLRLTTKSFQNFEFIITPGQSDLEIRKYITTRPLFNSYLSTNQCVLGVTAKQWIELIAQVFIQDKGVLLKLQNSNKFNIKEIQYYTRELNIVRLKIESSELQDTQLSKMFPKVEELTVTRDKIPSSILSRNFKKLRFDDIKVSLDNILISNCSSFLIFLQTLPDKDLNRFMKLWIKESNPNLKTFEVCFPDYEQTGLDGTILFKGIRCIDSIKHGEVTRKKFKRHDGTTALVSVFASTSFHFCMTVVG”: “not soluble”. As to “MSLQDLATLYPQKTWSVVNQQFSADQGQLAFAHANTLLALTKECQQPIIHFWTLEKTVILGMMDTKLPELTAATDQLTAAGYHYFVRNAGGLGIVADTGILNLGFYLPEVADHLSINAAYELMKTLFSETFNTSNITIEHFEVQHSYCPGEYDLSINGQKFAGIAQRRSKNGIAILLYASIEGDQQARGTLMQHFYQAGKAQQQTRWTFPDVHPETMANLADLLHQPLTVASVSQQLSASLQSNSGLTLQSDLQTLMQEADYQTQLTKNTQLLRRYQPGYQPEGHHHHHH”, the “soluble on expression in E. coli” value was “soluble”. The entry for “SDVIKTQQISARTIEKVIVHPLVLLSIVDHYNRVAKDTSKRVVGVLLGSSSRGTVDVTNSYAVPFEEDDKDTSIWFLDHNYHESMFHMFKRINAKEHIVGWYSTGPKLRENDLDVHALFNGYVPNPVLVIIDVQPKELGIPTKAYYAVEEVKENATQKSQQVFVHVPTEIAAHEVEEIGVEHLLRDVKDTTISTLATEVTAKLTALKGLDARLREIRTYLDLVIEGKLPLNHEILYHLQDVFNLLPNLNVNELVKAFAVKTNDMMLVIYLSSLIRSVIALHSLINNKLLNKEHEKAEDSKPVDIPLITES” is “soluble”; for “MIFEVPIDHFPASSQQVSKTREHKPLRLSTVSLHSKEVNAAVAPLSPSVRRSQFNFSSEVTKSALPKVRASIPPLKRALTSPALPVQHLNLNLVRKGSNPSSQTSRNNSVTDLLKSELFKMPSRLLSTAVSLHQLA” it is “not soluble”. The same measure for “MLAGLQKTTLVNFPRRVAAAVFLPGCNIRCPYCHNAELALASPSSFTANQESSNDYYELSEIYTFLERRKNLISGLVISGGEPFMSPALFELIERAKSLNLAVKIDTNGLFPERIEEVLRSSNLQPDMIAIDVKTSPERYGELLASKTDSAAKKAKTALLKTLDILKSNTEKTEVEYRTVLAPPLVSEDEIKKIASLLPKNARWRLAQFVPGTCLNPEWNSVEPYPLSQAQALTAIAKSLIPDTELR”: “not soluble”; for “MGSDKIHHHHHHMTYTSLQSPADKDYLYDIRVAHLYGNLLNTYGDNGNVLMLKYVGEKLGIRMTFDIVSIGDDFDANKYDMVFFGGGQDYEQSIVAKDLPNKRSAIASFIQNNKVVLAICGGFQLLGQYYVQANGVRIDGIGVMGHYTLNQKDNRYIGDIKIHNDEFNETYYGFENHQGRTFLSDDEKPLGRVIYGNGNNKEDGSEGVHYKNVFGSYFHGPILSRNANLAYRLVTTALHNKYGIDIQLPRYEDILSLEVAEEYGDVKSKAEFEK”: “not soluble”; for “MGSDKIHHHHHHAQTEVLTGVTRGKDYGVVYALPKTQIEIEIKANKVNYKPGEFSKYADRYLRLTNVSAEPEEYWELNSVKVKPVGVPNSEATYFVKLKDKTVAPLMELTEEGLIKSINVPYSSNNAKNAANNAVAPQRKANPRDFLTEEILMASSTAKMAELVAKEIYNIRESKNALLRGQADNMPSDGAQLKIMLDNLNLQEEAMTEMFSGVRNKEEKTFTVRLTPDKEFDNEVAFRFSKKLGIVANNDLAGTPFYISLKDLKTVKIPQEDGKKKKEMEGIAYNVPGQAMVTLTDGKKKLYEGEIPVTQFGIIEYLAPVLFNKNSTIKVYFDPVTGGLLKVDREESK”: “not soluble”. Consider “MSLGDVEEWVNPDQSTSQPVTKAALVEKTVAMTEAGKFASFFQEGELETIQKLRVSGPLDASDIDAIRYQMPRLEVLDMKEVELIESDKTYGAEDHREHYKLKKGVITPKMLQCFSLLVTLVLPKDITEIEDYGIYGNKNLVSIEIPVTVKKVGAHVFKSCSSLQKVDLPNVETLGERVFESCGKLTKVTLSPDLQVIPDYAFQYCGSLADVPLPSSLVSIGVSAFRDCSSLVDVPLPSSLVSIGTGAFANCKSLTSVDMPNTVTTLENGTYQNCTNLKDVKLSDNLKRIGAENDHYSGSSFEGCQNLASIDIPASVSWINSFSFKNCVNLKTVTFHEGLQVIGGKSFQGCSSLVSVSIPKSVTSIGDESFEYCSSLNEMNLSQEGTPEINSSAFAYSGLSSITIPETVTSVGGGILNGCSRLTSIFWECNRDVPNIIDLNSTSCLLYLSHDVKCPSTWKNVIEPGGVAQTIVLKNEKRYLCPKAFTANKISYTREFTMKTIPGKAAGWQTIILPFSVQTITDKDGNRLAPFMAEGDGIWKRFWLRELQADGTYKDVTAIEANKPYLIAMPNAEEYASEYCISGNVTFEADNVSLGETPEIVPTDGGAYSMYGTYDWVTGTRKVYALNLDNWSDGSVYYEKGSVFVPSLRDVAPFECYLQNNNPSASTRGFIGIVGSHASTRAGEGHHHHHH”, for which the “soluble on expression in E. coli” value was “soluble”.

“MGSDKIHHHHHHMSSLATLAQPLADGTFQCLACQWRCTLAPGEIGRCHMRIGREEGIELINHGMISGAAIGPVEDHRLWHFFPDTTVLAIGGWGYALPIDQQRGPYGTLPTEPAKQRRLEPQRAADFALERLCRGVVWAFGEPAVNFEYVLALLQLSRAASRYTAIVTSGMLSLEALNELGPYLNGISLDLRGFSDNAYQRLGGISDWRHILRFAEEAQQRWKCHIEITTRIHHGVNDHPDELRDLVEWIKKTLGEETPWHVLPGDAGSETAAATKQARRIGHEGGLQFIYGHEPNQPTRCPSCHATLINRQHGVSRRVGLDGNRCSNCGYATNLYLSIFKVHRT”: the “soluble on expression in E. coli” value is recorded as “not soluble”. Consider “MTKIFIRDDNGGTEMSQDPFQEREAEKYANPIPSREFILEHLTKREKPASRDELAVELHIEGEEQLEGLRRRLRAMERDGQLVFTRRQCYALPERLDLVKGTVIGHRDGYGFLRVEGRKDDLYLSSEQMKTCIHGDQVLAQPLGADRKGRREARIVRVLVPKTSQIVGRYFTEAGVGFVVPDDSRLSFDILIPPDQIMGARMGFVVVVELTQRPTRRTKAVGKIVEVLGDNMGTGMAVDIALRTHEIPYIWPQAVEQQVAGLKEEVPEEAKAGRVDLRDLPLVTIDGEDARDFDDAVYCEKKRGGGWRLWVAIADVSYYVRPSTPLDREARNRGTSVYFPSQVIPMLPEVLSNGLCSLNPQVDRLCMVCEMTVSSKGRLTGYKFYEAVMSSHARLTYTKVWHILQGDQDLREQYAPLVKHLEELHNLYKVLDKAREERGGISFESEEAKFIFNAERRIERIEQTQRNDAHKLIEECMILANISAARFVEKAKEPALFRIHDKPSTEAITSFRSVLAELGLELPGGNKPEPRDYAELLESVADRPDAEMLQTMLLRSMKQAIYDPENRGHFGLALQSYAHFTSPIRRYPDLTLHRAIKYLLAKEQGHQGNTTETGGYHYSMEEMLQLGQHCSMAERRADEATRDVADWLKCDFMLDQVGNVFKGVISSVTGFGFFVRLDDLFIDGLVHVSSLDNDYYRFDQVGQRLMGESSGQTYRLGDRVEVRVEAVNMDERKIDFSLISSERAPRNVGKTAREKAKKGDAGKKGGKRRQVGKKVNFEPDSAFRGEKKTKPKAAKKDARKAKKPSAKTQKIAAATKAKRAAKKKVAELEHHHHHH”, for which the “soluble on expression in E. coli” value was “soluble”. The entry for “MGSDKIHHHHHHMVVLMTKPGTSDFVWNGIPLSMELNLWNIKEYSGSVAMKFDGEKITFDADIQNLSPKEPERYVLGYPEFYYGYKPWENHTAEGSKLPVPVSSMKSFSVEVSFDIHHEPSLPLNFAMETWLTREKYQTEASIGDVEIMVWFYFNNLTPGGEKIEEFTIPFVLNGESVEGTWELWLAEWGWDYLAFRLKDPVKKGRVKFDVRHFLDAAGKALSSSARVKDFEDLYFTVWEIGTEFGSPETKSAQFGWKFENFSIDLEVRE” is “not soluble”.
